# In patent US20200247849A1, “PEPTIDE AGONISTS AND ANTAGONISTS OF TLR4 ACTIVATION” (PEPTICOM LTD, priority 2016, published 2020):
# What was measured:
# Type in all cases: cell-based
# CD14-TLR4 = target: T1, CD14-TLR4 (Homo sapiens, UniProt P08571); assay: Reporter gene assay, NIH3T3 cells transfected with CD14 and TLR4, LPS-mediated activation; conditions: FIG. 6I
# T1 construct: expressed in transfected cells; host or cells: NIH3T3
# T1 sequence (P08571 20-345 limits assumed): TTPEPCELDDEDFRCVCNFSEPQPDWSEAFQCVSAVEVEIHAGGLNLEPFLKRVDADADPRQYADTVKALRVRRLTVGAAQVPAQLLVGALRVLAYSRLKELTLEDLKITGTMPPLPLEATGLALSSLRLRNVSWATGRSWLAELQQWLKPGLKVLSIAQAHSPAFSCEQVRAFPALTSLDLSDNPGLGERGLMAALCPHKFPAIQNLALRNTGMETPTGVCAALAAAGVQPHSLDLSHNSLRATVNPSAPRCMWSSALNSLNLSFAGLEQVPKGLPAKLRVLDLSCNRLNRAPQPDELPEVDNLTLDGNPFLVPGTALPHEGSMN
# From the text: FIGS. 6A-6V present peptide activity using NIH3T3 cells that express TLR4, with either the MD2 co-receptor (top) or CD14 co-receptor (bottom), for peptides of SEQ ID Nos. 1-22, respectively, according to some embodiments of the invention. FIGS. 6A-6V show the dose response inhibitor/activator effects of the designed peptides using a reporter gene assay. The reporter gene assay is composed of NIH3T3 cells transfected with either MD2 or CD14 along with TLR4 and the NF-κB-inducible reporter gene Secreted Alkaline Phosphatase (SEAP) to monitor TLR4 activation (Burger-Kentischer et al. 2010, A new cell-based innate immune receptor assay for the examination of receptor activity, ligand specificity, signaling pathways and the detection of pyrogens. J Immunol Methods. 358(1-2): 93-103). […] The receptors are coupled to for the detection of inhibitory activity, cells were treated with the peptide prior to exposure to LPS and the response to LPS is measured at variable peptide doses (as labeled). […]
# At Day 3: To determine the final SEAP value, 50 μl of the supernatant is carefully transferred in a new 96-well plate (Greiner-F-plate) and 50 μl of the substrate (pNPP; p-nitrophenyl phosphate) is added. SEAP catalyzes the hydrolysis of pNPP to the final product para-nitrophenol (yellow) which can be detected by a photometric analysis using an UV-VIS reader at 405 nm. […]
# [1] = tested on: primary mouse macrophages (expressing TLR4, MD2 and CD14); assay: TNF-a release from primary mouse macrophages exposed to LPS; conditions: FIG. 7
# From the text: (§1) The top graph presents TNF-a release from primary mouse macrophages exposed to LPS treated with either peptide SEQ ID No. 9 or a control peptide while the bottom graph presents TNF-a release from primary mouse macrophages exposed to PAM3 treated with either peptide SEQ ID No. 9 or a control peptide. […] This method had been previously described (Lerner et al. 2011, Heparanase powers a chronic inflammatory circuit that promotes colitis-associated tumorigenesis in mice. J Clin Invest. 121(5): 1709-1721).
# TLR1/2 = target: T2, TLR1/2 (Mus musculus, UniProt Q9EPQ1+Q9QUN7); assay: TNF-a release from primary mouse macrophages exposed to PAM3; conditions: primary mouse macrophages exposed to PAM3, FIG. 7
# T2 construct: endogenous in cells; host or cells: primary mouse macrophages
# From the text: as §1
# T2 sequence (Q9EPQ1 26-795): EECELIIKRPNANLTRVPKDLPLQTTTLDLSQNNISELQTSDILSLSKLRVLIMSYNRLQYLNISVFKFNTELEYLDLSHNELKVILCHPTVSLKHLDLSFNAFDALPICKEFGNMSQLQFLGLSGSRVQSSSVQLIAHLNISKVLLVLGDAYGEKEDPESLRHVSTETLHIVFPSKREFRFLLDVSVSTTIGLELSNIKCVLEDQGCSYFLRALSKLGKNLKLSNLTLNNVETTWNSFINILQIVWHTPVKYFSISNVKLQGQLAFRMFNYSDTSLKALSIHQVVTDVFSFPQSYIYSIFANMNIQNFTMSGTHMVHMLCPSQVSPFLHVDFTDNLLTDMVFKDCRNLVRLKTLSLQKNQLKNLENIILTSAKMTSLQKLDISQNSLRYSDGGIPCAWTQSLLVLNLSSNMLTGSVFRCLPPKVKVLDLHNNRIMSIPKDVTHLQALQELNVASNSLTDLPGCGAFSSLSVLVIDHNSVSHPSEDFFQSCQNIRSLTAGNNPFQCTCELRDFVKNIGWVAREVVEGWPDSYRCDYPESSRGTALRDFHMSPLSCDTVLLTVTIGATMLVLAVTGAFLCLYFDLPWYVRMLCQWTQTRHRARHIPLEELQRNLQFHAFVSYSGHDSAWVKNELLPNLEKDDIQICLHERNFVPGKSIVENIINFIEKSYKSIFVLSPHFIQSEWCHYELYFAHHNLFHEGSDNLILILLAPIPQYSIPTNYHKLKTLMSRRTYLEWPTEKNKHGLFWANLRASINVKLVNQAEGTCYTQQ
# T2 sequence (Q9QUN7 25-784): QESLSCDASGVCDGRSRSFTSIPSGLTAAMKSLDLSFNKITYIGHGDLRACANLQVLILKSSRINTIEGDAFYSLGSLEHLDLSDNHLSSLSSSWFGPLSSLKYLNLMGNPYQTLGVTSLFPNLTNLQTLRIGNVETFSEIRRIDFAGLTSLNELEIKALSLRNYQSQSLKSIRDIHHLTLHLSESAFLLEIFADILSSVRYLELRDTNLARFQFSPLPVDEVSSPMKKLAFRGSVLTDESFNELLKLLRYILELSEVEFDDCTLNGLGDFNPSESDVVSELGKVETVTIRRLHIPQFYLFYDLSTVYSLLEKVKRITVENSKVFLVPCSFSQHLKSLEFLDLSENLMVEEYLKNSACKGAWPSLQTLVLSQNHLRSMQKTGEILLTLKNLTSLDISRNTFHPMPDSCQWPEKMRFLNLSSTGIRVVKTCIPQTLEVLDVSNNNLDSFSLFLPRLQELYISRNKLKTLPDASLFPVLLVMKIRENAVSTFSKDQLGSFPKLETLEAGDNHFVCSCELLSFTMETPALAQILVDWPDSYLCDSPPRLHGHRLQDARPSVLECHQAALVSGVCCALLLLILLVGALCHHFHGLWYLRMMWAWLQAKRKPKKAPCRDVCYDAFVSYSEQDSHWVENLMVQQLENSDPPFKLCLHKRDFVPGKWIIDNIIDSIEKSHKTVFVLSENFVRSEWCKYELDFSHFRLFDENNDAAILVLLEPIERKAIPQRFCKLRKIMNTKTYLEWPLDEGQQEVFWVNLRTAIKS
sequence,measurement,setting,value
ILFMGMKWL (Inhibitor) [SEQ ID No. 9],inhibition of LPS mediated CD14-TLR4 activation,CD14-TLR4,inability of to inhibit
same,effect on LPS-induced TNF-a release,[1],inhibitory effect
same,effect on PAM3 induced TNF-a release,TLR1/2,no significant effect
